In US20140200179A1 one finds Kd data, which are given here for one substance.

Where “and” joins values, the source holds several entries; their conditions need not be identical. Equal values may be shown once.

One may read the Kd as the equilibrium constant for the complex coming apart. Read a high Kd as weaker binding.

The target in the test is Fz-CRD (biotinylated Fz5- and Fz8-CRD). In words: SPR, biotinylated Fz5- and Fz8-CRD on the chip, mini-Xwnt8 flowed over at several concentrations.

In the case of “mini-XWnt8 (amino acid residues 248-338) (from UniProt P28026) (ligand)”, the Kd was 1000 nM and 2000 nM.
